Test results as given in US20130079278A1 (Novo Nordisk, published 2013).
*1 amine or outer side, *2 acyl side, *3 side chain or, on linkers, in order; H or OH if unused. Where no end group is shown, it is not given here. Side-chain parts run from the residue outwards. The star is where a group is joined. C18 diacid = O=C(O)CCCCCCCCCCCCCCCCC(=O)*; C16 diacid = O=C(O)CCCCCCCCCCCCCCC(=O)*; γGlu = O=C(O)[C@H](CCC(=O)[*:2])N[*:1]; AEEA = NCCOCCOCC(=O)O

Biological target: glucagon receptor (human, UniProt P47871 26-477)
Experiment: cell-based or functional assay

glucagon receptor, sequence (P47871 26-477): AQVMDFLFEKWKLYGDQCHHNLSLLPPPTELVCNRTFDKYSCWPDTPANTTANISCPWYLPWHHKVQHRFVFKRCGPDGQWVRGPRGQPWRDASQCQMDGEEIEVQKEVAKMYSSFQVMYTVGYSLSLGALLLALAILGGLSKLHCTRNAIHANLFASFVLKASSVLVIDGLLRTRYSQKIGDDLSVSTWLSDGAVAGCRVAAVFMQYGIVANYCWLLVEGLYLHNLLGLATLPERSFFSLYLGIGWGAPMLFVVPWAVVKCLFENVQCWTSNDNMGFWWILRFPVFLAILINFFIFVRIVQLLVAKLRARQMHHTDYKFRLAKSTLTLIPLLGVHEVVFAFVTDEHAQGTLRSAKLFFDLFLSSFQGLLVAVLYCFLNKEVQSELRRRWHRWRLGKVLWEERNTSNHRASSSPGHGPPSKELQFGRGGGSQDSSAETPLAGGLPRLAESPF

| Binder | Assay (I) Glucagon [EC50] [pM] |
| --- | --- |
| HSQGTFTSDYSKYLDERRAQDFVK([γGlu-γGlu-AEEA-AEEA-γGlu-C16 diacid])WLLST | 17 |
| HSQGTFTSDYSRYLDERRAQDFVK([γGlu-γGlu-AEEA-AEEA-γGlu-C16 diacid])WLLST | 29 |
| HSQGTFTSDYSKYLDVRRAQDFVK([γGlu-γGlu-AEEA-AEEA-γGlu-C16 diacid])WLLST | 9 |

The next lines start with the values.

| Assay (I) Glucagon [EC50] [pM] | Binder |
| --- | --- |
| 62 | HSQGTFTSDYSRYLDARRAQDFVK([γGlu-γGlu-γGlu-γGlu-C18 diacid])WLLST |
| 26 | HSQGTFTSDYSRYLDVRRAQDFVK([γGlu-γGlu-AEEA-AEEA-γGlu-C16 diacid])WLLST |
